From publication PMC4105210 (Nature communications, 2014) come the findings set out here.

Numbering of substitutions follows the chain as printed. Names and notes keep the numbering of the source.

Series [1] deals with T1, HSV-1 UL31, full length (residues 1-306) (HSV-1 strain F, UniProt P10215 1-306).
T1 sequence: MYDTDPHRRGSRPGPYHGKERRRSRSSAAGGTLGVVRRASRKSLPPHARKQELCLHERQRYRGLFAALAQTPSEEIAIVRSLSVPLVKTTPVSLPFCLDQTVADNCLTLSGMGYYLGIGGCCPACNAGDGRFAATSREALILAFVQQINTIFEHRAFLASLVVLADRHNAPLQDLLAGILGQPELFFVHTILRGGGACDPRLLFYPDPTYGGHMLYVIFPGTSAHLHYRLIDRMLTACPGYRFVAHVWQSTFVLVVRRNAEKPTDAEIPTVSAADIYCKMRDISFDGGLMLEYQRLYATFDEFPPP
Put plainly: SEC. In general terms: In gel filtration, larger molecules generally elute earlier.

For series [2], the target named is T2, HSV-1 UL31Δ50 (residues 51-306) (HSV-1 strain F, UniProt P10215 51-306).
T2 sequence: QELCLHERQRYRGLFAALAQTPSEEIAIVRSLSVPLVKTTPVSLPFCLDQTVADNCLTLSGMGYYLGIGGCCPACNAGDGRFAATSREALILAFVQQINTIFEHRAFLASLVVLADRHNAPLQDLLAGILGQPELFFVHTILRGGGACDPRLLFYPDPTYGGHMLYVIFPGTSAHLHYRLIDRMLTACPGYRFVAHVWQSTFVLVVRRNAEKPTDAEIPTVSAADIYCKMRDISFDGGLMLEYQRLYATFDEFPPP
Put plainly: SEC.

Series [3] deals with T1, HSV-1 UL31, full length (residues 1-306). Nature of the series: co-purification.
The series “cross-linking” concerns the molecule itself. Put plainly: cross-linking.
The series “cryo-EM structure” concerns the molecule itself. Put plainly: cryo-EM structure.

B1: HSV-1 UL34(1-185) (domain or fragment)
chain: MAGLGKPYTGHPGDAFEGLVQRIRLIVPSTLRGGDGEAGPYSPSSLPSRCAFQFHGHDGSDESFPIEYVLRLMNDWAEVPCNPYLRIQNTGVSVLFQGFFHRPHNAPGGAITPERTNVILGSTETTGLSLGDLDTIKGRLGLDARPMMASMWISCFVRMPRVQLAFRFMGPEDAGRTRRILCRAA
As for B1, the binding result in series [1] and in series [2] was “binds” each time.

B2: HSV-1 UL34(1-220) (domain or fragment)
chain: MAGLGKPYTGHPGDAFEGLVQRIRLIVPSTLRGGDGEAGPYSPSSLPSRCAFQFHGHDGSDESFPIEYVLRLMNDWAEVPCNPYLRIQNTGVSVLFQGFFHRPHNAPGGAITPERTNVILGSTETTGLSLGDLDTIKGRLGLDARPMMASMWISCFVRMPRVQLAFRFMGPEDAGRTRRILCRAAEQAITRRRRTRRSREAYGAEAGLGVAGTGFRARGD
For B2, the binding result in series [2] and in series [3] was “binds” throughout.

B3: HSV-1 nuclear egress complex NEC220-DN (UL31 1-306 with UL34 1-220 D35A/E37A) (complex)
chain 1: T1 sequence
chain 2: B2 chain with D35A, E37A
For the molecule B3, the binding result in the series “cross-linking” is “binds”.

B4: HSV-1 nuclear egress complex NEC220 (UL31 1-306 with UL34 1-220) (complex)
chain 1: T1 sequence
chain 2: B2 chain
In the case of B4, the stoichiometry N (as a rule, the number of molecules, sites or subunits per partner or assembly) in the series “cryo-EM structure” came to 6.
